Results as given in patent US20210095032A1 (SALUBRIS CHENGDU BIOTECH, published 2021).
Where two headings read alike, the source gives them in different places.

Key:
Experiment in all cases: capture ELISA, antibody captured on plate, biotin-labeled human PD-1 Fc in solution
[1] = biological target: T1, biotin-labeled human PD-1 Fc protein (human, biotin-labeled (site not stated))
T1 construct: also called PD-1-Fc-biotin
Procedure: (§1) Plates were washed 4 times with wash buffer (PBS+0.05% Tween-20, PBST) and then blocked with 200 μl/well blocking buffer (5% w/v non-fatty milk in PBST) for 2 hours at 37° C. […] After a final wash, plates were incubated with 100 μl/well ELISA substrate TMB (Innoreagents). The reaction was stopped in 15 minutes at 25° C. with 50 μl/well 1M H₂SO₄, and the absorbance was read at 450 nm. Data were analyzed using Graphpad Prism software and EC₅₀ values were reported.

[2] = biological target: T1, biotin-labeled human PD-1 Fc protein; remark: listed apart in the source
Procedure: as §1

[3] = biological target: T1, biotin-labeled human PD-1 Fc protein; remark: listed apart in the source
Procedure: as §1

[4] = biological target: T1, biotin-labeled human PD-1 Fc protein; remark: listed apart in the source
Procedure: as §1

T1 sequence (chain, as listed by the source limits assumed): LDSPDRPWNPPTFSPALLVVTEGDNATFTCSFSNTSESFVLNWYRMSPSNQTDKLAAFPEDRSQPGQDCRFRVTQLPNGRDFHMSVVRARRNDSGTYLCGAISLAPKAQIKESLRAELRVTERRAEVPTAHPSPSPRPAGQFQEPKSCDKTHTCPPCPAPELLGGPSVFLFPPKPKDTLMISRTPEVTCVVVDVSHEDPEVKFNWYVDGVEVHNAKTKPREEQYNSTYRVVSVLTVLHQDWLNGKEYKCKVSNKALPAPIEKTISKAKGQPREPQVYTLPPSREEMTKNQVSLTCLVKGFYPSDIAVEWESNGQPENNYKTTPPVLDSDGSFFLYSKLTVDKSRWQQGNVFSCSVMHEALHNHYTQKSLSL

Row | Binder | EC50 [1] [ng/mL] | EC50 [2] [ng/mL] | other results
1 | huD2H3-V1 (antibody, human IgG1, kappa, Humanized D2H3, human IgG1/kappa) heavy: not shown light: DIVLTQSPDSLAVSLGERATINCRASESVSLHGTRLMHWYQQKPGQPPKLLISLGSNLESGVPDRFSGSGSETDFTLTISSLQAEDVAVYFCQQSIEDPWTFGQGTKLEIKRTVAAPSVFIFPPSDEQLKSGTASVVCLLNNFYPREAKVQWKVDNALQSGNSQESVTEQDSKDSTYSLSSTLTLSKADYEKHKVYACEVTHQGLSSPVTKSFNRGEC | 0.28 |  | 
2 | huD2H3-V2 (antibody, human IgG1, kappa, V domains shown, Humanized D2H3, human IgG1/kappa) VH: EVQLVQSGAEVKKPGSSVKVSCKASGYTFTNYWMHWVRQAPGQGLEWIGAIFPRNSETNYNQKFKARATLTADTSTSTAYMELSSLRSEDTAVYFCTRNRYGLDYWGQGTLVTVSS VL: DIVLTQSPDSLAVSLGERATINCRASESVSLHGTRLMHWYQQKPGQPPKLLISLGSNLESGVPDRFSGSGSETDFTLTISSLQAEDVAVYFCQQSIEDPWTFGQGTKLEIKR | 0.21 |  | 
3 | huD2H3-V3 (antibody, human IgG1, kappa, V domains shown, Humanized D2H3, human IgG1/kappa) VH: EVQLVQSGAEVKKPGSSVKVSCKSSGYTFTNYWMHWVRQAPGQGLEWMGAIFPRNSETNYNQKFKARATLTADTSTSTAYMELSSLRSEDTAVYFCTRNRYGLDYWGQGTLVTVSS VL: DIVLTQSPDSLAVSLGERATINCRASESVSLHGTRLMHWYQQKPGQPPKLLISLGSNLESGVPDRFSGSGSETDFTLTISSLQAEDVAVYFCQQSIEDPWTFGQGTKLEIKR | 0.19 |  | 
4 | huD2H3-V4 (antibody, human IgG1, kappa, V domains shown, Humanized D2H3, human IgG1/kappa) VH: EVQLVQSGAEVKKPGSSVKVSCKSSGYTFTNYWMHWVRQAPGQGLEWIGAIFPRNSETNYNQKFKARVTLTADTSTSTAYMELSSLRSEDTAVYFCTRNRYGLDYWGQGTLVTVSS VL: DIVLTQSPDSLAVSLGERATINCRASESVSLHGTRLMHWYQQKPGQPPKLLISLGSNLESGVPDRFSGSGSETDFTLTISSLQAEDVAVYFCQQSIEDPWTFGQGTKLEIKR | 0.28 |  | 
5 | huD2H3-V5 (antibody, human IgG1, kappa, V domains shown, Humanized D2H3, human IgG1/kappa) VH: EVQLVQSGAEVKKPGSSVKVSCKSSGYTFTNYWMHWVRQAPGQGLEWIGAIFPRNSETNYNQKFKARATITADTSTSTAYMELSSLRSEDTAVYFCTRNRYGLDYWGQGTLVTVSS VL: DIVLTQSPDSLAVSLGERATINCRASESVSLHGTRLMHWYQQKPGQPPKLLISLGSNLESGVPDRFSGSGSETDFTLTISSLQAEDVAVYFCQQSIEDPWTFGQGTKLEIKR | 0.32 |  | 
6 | huD2H3-V6 (antibody, human IgG1, kappa, V domains shown, Humanized D2H3, human IgG1/kappa) VH: EVQLVQSGAEVKKPGSSVKVSCKSSGYTFTNYWMHWVRQAPGQGLEWIGAIFPRNSETNYNQKFKARATLTADESTSTAYMELSSLRSEDTAVYFCTRNRYGLDYWGQGTLVTVSS VL: DIVLTQSPDSLAVSLGERATINCRASESVSLHGTRLMHWYQQKPGQPPKLLISLGSNLESGVPDRFSGSGSETDFTLTISSLQAEDVAVYFCQQSIEDPWTFGQGTKLEIKR | 0.17 |  | 
7 | huD2H3-V7 (antibody, human IgG1, kappa, V domains shown, Humanized D2H3, human IgG1/kappa) VH: EVQLVQSGAEVKKPGSSVKVSCKSSGYTFTNYWMHWVRQAPGQGLEWIGAIFPRNSETNYNQKFKARATLTADTSTSTAYMELSSLRSEDTAVYYCTRNRYGLDYWGQGTLVTVSS VL: DIVLTQSPDSLAVSLGERATINCRASESVSLHGTRLMHWYQQKPGQPPKLLISLGSNLESGVPDRFSGSGSETDFTLTISSLQAEDVAVYFCQQSIEDPWTFGQGTKLEIKR |  | 0.157 | 
8 | huD2H3-V8 (antibody, human IgG1, kappa, Humanized D2H3, human IgG1/kappa) heavy: not shown light: DIVMTQSPDSLAVSLGERATINCRASESVSLHGTRLMHWYQQKPGQPPKLLISLGSNLESGVPDRFSGSGSETDFTLTISSLQAEDVAVYFCQQSIEDPWTFGQGTKLEIKRTVAAPSVFIFPPSDEQLKSGTASVVCLLNNFYPREAKVQWKVDNALQSGNSQESVTEQDSKDSTYSLSSTLTLSKADYEKHKVYACEVTHQGLSSPVTKSFNRGEC |  | 0.171 | 
9 | huD2H3-V9 (antibody, human IgG1, kappa, V domains shown, Humanized D2H3, human IgG1/kappa) VH: EVQLVQSGAEVKKPGSSVKVSCKSSGYTFTNYWMHWVRQAPGQGLEWIGAIFPRNSETNYNQKFKARATLTADTSTSTAYMELSSLRSEDTAVYFCTRNRYGLDYWGQGTLVTVSS VL: DIVLTQSPDSLAVSLGERATINCRASESVSLHGTRLMHWYQQKPGQPPKLLIYLGSNLESGVPDRFSGSGSETDFTLTISSLQAEDVAVYFCQQSIEDPWTFGQGTKLEIKR |  | 0.358 | 
10 | huD2H3-V10 (antibody, human IgG1, kappa, V domains shown, Humanized D2H3, human IgG1/kappa) VH: EVQLVQSGAEVKKPGSSVKVSCKSSGYTFTNYWMHWVRQAPGQGLEWIGAIFPRNSETNYNQKFKARATLTADTSTSTAYMELSSLRSEDTAVYFCTRNRYGLDYWGQGTLVTVSS VL: DIVLTQSPDSLAVSLGERATINCRASESVSLHGTRLMHWYQQKPGQPPKLLISLGSNLESGVPDRFSGSGSGTDFTLTISSLQAEDVAVYFCQQSIEDPWTFGQGTKLEIKR |  | 0.505 | 
11 | huD2H3-V11 (antibody, human IgG1, kappa, V domains shown, Humanized D2H3, human IgG1/kappa) VH: EVQLVQSGAEVKKPGSSVKVSCKSSGYTFTNYWMHWVRQAPGQGLEWIGAIFPRNSETNYNQKFKARATLTADTSTSTAYMELSSLRSEDTAVYFCTRNRYGLDYWGQGTLVTVSS VL: DIVLTQSPDSLAVSLGERATINCRASESVSLHGTRLMHWYQQKPGQPPKLLISLGSNLESGVPDRFSGSGSETDFTLTISSLQAEDVAVYYCQQSIEDPWTFGQGTKLEIKR |  | 0.17 | 
12 | huD2H3-V12 (antibody, human IgG1, kappa, V domains shown, Humanized D2H3, human IgG1/kappa; also called huPD1-D2H3-V12) VH: EVQLVQSGAEVKKPGSSVKVSCKASGYTFTNYWMHWVRQAPGQGLEWMGAIFPRNSETNYNQKFKARVTITADESTSTAYMELSSLRSEDTAVYYCTRNRYGLDYWGQGTLVTVSS VL: DIVLTQSPDSLAVSLGERATINCRASESVSLHGTRLMHWYQQKPGQPPKLLISLGSNLESGVPDRFSGSGSETDFTLTISSLQAEDVAVYFCQQSIEDPWTFGQGTKLEIKR |  |  | EC50 [3]: 0.354 ng/mL
13 | huD2A4-V1 (antibody, human IgG1, kappa, Humanized D2A4, human IgG1/kappa) heavy: not shown light: DIQMTQSPSSVSASVGDRVTITCLASQTIGTWLAWYQQKPGKSPKLLIYAATSLADGVPSRFSGSGSGTDFTLTISSLQPEDFATYYCQQVSSIPWTFGGGTKVEIKRTVAAPSVFIFPPSDEQLKSGTASVVCLLNNFYPREAKVQWKVDNALQSGNSQESVTEQDSKDSTYSLSSTLTLSKADYEKHKVYACEVTHQGLSSPVTKSFNRGEC |  |  | EC50 [4]: 0.385 ng/mL
14 | huD2A4-V2 (antibody, human IgG1, kappa, Humanized D2A4, human IgG1/kappa) heavy: not shown light: DIQMTQSPSSVSASVGDRVTITCLASQTIGTWLAWYQQKPGKSPKLLIYAATSLADGVPSRFSGSGSGTDFTLTISSLQPEDFATYYCQQVSSIPWTFGGGTKVEIKRTVAAPSVFIFPPSDEQLKSGTASVVCLLNNFYPREAKVQWKVDNALQSGNSQESVTEQDSKDSTYSLSSTLTLSKADYEKHKVYACEVTHQGLSSPVTKSFNRGEC |  |  | EC50 [4]: 0.379 ng/mL
15 | huD2A4-V3 (antibody, human IgG1, kappa, Humanized D2A4, human IgG1/kappa) heavy: not shown light: DIQMTQSPSSVSASVGDRVTITCLASQTIGTWLAWYQQKPGKSPKLLIYAATSLADGVPSRFSGSGSGTDFTLTISSLQPEDFATYYCQQVSSIPWTFGGGTKVEIKRTVAAPSVFIFPPSDEQLKSGTASVVCLLNNFYPREAKVQWKVDNALQSGNSQESVTEQDSKDSTYSLSSTLTLSKADYEKHKVYACEVTHQGLSSPVTKSFNRGEC |  |  | EC50 [4]: 0.55 ng/mL
16 | huD2A4-V4 (antibody, human IgG1, kappa, V domains shown, Humanized D2A4, human IgG1/kappa) VH: EVQLVESGGGLVQPGGSLRLSCAASGFTFSSYTMSWVRQAPGKGLEWVATISGGGSNTYYPDSVKGRFTISRDNSKNTLYLQMNSLRAEDTAVYYCARQAFYSNYWYFDVWGAGTTVTVSS VL: DIQMTQSPSSVSASVGDRVTITCLASQTIGTWLAWYQQKPGKAPKLLIYAATSLADGVPSRFSGSGSGTDFTLTISSLQPEDFATYYCQQVSSIPWTFGGGTKVEIKR |  |  | EC50 [4]: 0.349 ng/mL
